In PMC8924070 (Frontiers in Immunology, 2022):

Key:
Details in all cases: both partners purified
[1] = target: T1, PD-1-ECD (PD-1-E. coli), extracellular domain of programmed cell death protein 1 expressed in E. coli (Homo sapiens, UniProt Q15116); assay: SPR; BIAcore8000, CM5 chip, room temperature; cemiplimab-scFv (695 RU) or camrelizumab-scFv (569 RU) immobilised; PD-1 forms flowed over (PD-1-WT 0-100 nM, PD-1-N58A 50-800 nM, PD-1-E. coli 0-8 μM); 1:1 Langmuir model
T1 construct: PD-1 (programmed cell death protein 1), extracellular domain, UniProt Q15116, residues L25-R147; no glycan, no post-translational modification; Cloned into pET-21a(+); also called non-glycosylated PD-1
T1 sequence (Q15116 25-147): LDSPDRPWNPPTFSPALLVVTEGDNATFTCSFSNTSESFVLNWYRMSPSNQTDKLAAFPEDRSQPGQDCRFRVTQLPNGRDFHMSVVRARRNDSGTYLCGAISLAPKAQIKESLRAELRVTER

[2] = target: T2, PD-1-N58A, extracellular domain of PD-1 (residues L25-R147) with N58A, expressed in 293F cells (Homo sapiens, UniProt Q15116, N58A, glycosylated in 293F cells, specifically deficient in N58 glycosylation); assay: SPR; cemiplimab-scFv (695 RU) or camrelizumab-scFv (569 RU) immobilised on a CM5 chip, PD-1 forms flowed over (PD-1-WT 0-100 nM, PD-1-N58A 50-800 nM, PD-1-E. coli 0-8 uM); BIAcore 8000, room temperature; 1:1 Langmuir binding model; mean of three repeats
T2 construct: programmed cell death protein 1 (PD-1), extracellular domain, residues L25-R147 of UniProt Q15116, N58A; also called N58A-mutated PD-1; N58 glycosylation-deficient PD-1; not shown: His6, C-terminal, kept
T2 sequence (Q15116 25-147 N58A): as the sequence (Q15116 25-147) above, with N34A counted along it

[3] = target: T3, PD-1-E. coli, extracellular domain of PD-1 (residues L25-R147) expressed in E. coli (Homo sapiens, UniProt Q15116); assay: as above
T3 construct: programmed cell death protein 1 (PD-1), extracellular domain, residues L25-R147 of UniProt Q15116; no glycans (E. coli); Cloned into pET-21a(+); also called PD-1-ECD; non-glycosylated PD-1
T3 sequence (Q15116 25-147): as the sequence (Q15116 25-147) above

| Binder | koff [2] [s⁻¹] | koff [3] [s⁻¹] | Kd [1] [nM] |
| --- | --- | --- | --- |
| cemiplimab-scFv (single-chain variable fragment of cemiplimab, VL-(GGGGS)4-VH) (scFv, V domains shown, VL of cemiplimab; linker, printed as GGGGS (4); VH of cemiplimab; Cloned into pET-21a(+); Used in the crystal and, by the SPR methods, immobilised on the CM5 chip; also called REGN2810; Libtayo) VH: EVQLLESGGVLVQPGGSLRLSCAASGFTFSNFGMTWVRQAPGKGLEWVSGISGGGRDTYFADSVKGRFTISRDNSKNTLYLQMNSLKGEDTAVYYCVKWGNIYFDYWGQGTLVTVSS VL: DIQMTQSPSSLSASVGDSITITCRASLSINTFLNWYQQKPGKAPNLLIYAASSLHGGVPSRFSGSGSGTDFTLTIRTLQPEDFATYYCQQSSNTPFTFGPGTVVDFR |  |  | 691 |
| camrelizumab-scFv (scFv, V domains shown, scFv of camrelizumab; Named only in the SPR methods) VH: EVQLVESGGGLVQPGGSLRLSCAASGFTFSSYMMSWVRQAPGKGLEWVATISGGGANTYYPDSVKGRFTISRDNAKNSLYLQMNSLRAEDTAVYYCARQLYYFDYWGQGTTVTVSS VL: DIQMTQSPSSLSASVGDRVTITCLASQTIGTWLTWYQQKPGKAPKLLIYTATSLADGVPSRFSGSGSGTDFTLTISSLQPEDFATYYCQQVYSIPWTFGGGTKVEIK |  |  | 2630 |

Continued, in another order:

| koff [2] [s⁻¹] | koff [3] [s⁻¹] | Binder | Kd [1] [nM] |
| --- | --- | --- | --- |
| 0.171 | 0.308 | camrelizumab-scFv (scFv, V domains shown, scFv of camrelizumab) VH: EVQLVESGGGLVQPGGSLRLSCAASGFTFSSYMMSWVRQAPGKGLEWVATISGGGANTYYPDSVKGRFTISRDNAKNSLYLQMNSLRAEDTAVYYCARQLYYFDYWGQGTTVTVSS VL: DIQMTQSPSSLSASVGDRVTITCLASQTIGTWLTWYQQKPGKAPKLLIYTATSLADGVPSRFSGSGSGTDFTLTISSLQPEDFATYYCQQVYSIPWTFGGGTKVEIK |  |
| 0.0274 | 0.047 | cemiplimab-scFv, single-chain variable fragment of cemiplimab (VL-(GGGGS)4-VH) (scFv, V domains shown, VL of cemiplimab; structure of the cemiplimab-scFv/PD-1 complex deposited as PDB 7WVM; linker, printed as GGGGS (4); VH of cemiplimab; Cloned into pET-21a(+); also called REGN2810; Libtayo) VH: EVQLLESGGVLVQPGGSLRLSCAASGFTFSNFGMTWVRQAPGKGLEWVSGISGGGRDTYFADSVKGRFTISRDNSKNTLYLQMNSLKGEDTAVYYCVKWGNIYFDYWGQGTLVTVSS VL: DIQMTQSPSSLSASVGDSITITCRASLSINTFLNWYQQKPGKAPNLLIYAASSLHGGVPSRFSGSGSGTDFTLTIRTLQPEDFATYYCQQSSNTPFTFGPGTVVDFR |  |
